{"source": "paper PMC7423924", "about": "“A fluorogenic cyclic peptide for imaging and quantification of drug-induced apoptosis” (Nature Communications, 2020)", "tested_on": "human monocyte-derived macrophages (MDMs)", "assay": "Phagocytosis of pHrodo-labeled apoptotic neutrophils by MDMs", "assay_type": "cell-based", "settings": "protein S 25 nM, AF647-Annexin V 25 nM", "description": "Neutrophils were cultured in the absence (black) or presence of Apo-15 (gray: 100 nM, white: 300 nM). Data presented as mean values ± SEM (n = 3). b Representative histograms of glucocorticoid-treated human MDMs after phagocytosis of pHrodo^TM-labeled neutrophils in the presence of different concentrations of Apo-15. Cells were analyzed using a 5L LSR cytometer with MDM identified based on their distinctive forward and side scatter properties (n = 4). Gating strategy in Supplementary Fig. 15A. c Flow cytometric quantification of phagocytosis of pHrodo^TM-labeled neutrophils by human MDMs. Human MDMs and neutrophils were co-cultured in the absence or presence of protein S (25 nM) and Apo-15 (60 or 600 nM) or AF647-Annexin V (25 nM). Data presented as mean values ± SEM (n ≥ 3). d Representative brightfield and fluorescence microscope images (from four independent experiments) of Apo-15-treated human neutrophils (green) in co-culture with human MDMs. […]\nOne potential limitation to the use of annexins for imaging apoptosis is their interference with the clearance of apoptotic cells by phagocytes. […] We examined whether Apo-15 affected the engulfment of apoptotic cells using a well-established in vitro assay to quantify the extent of phagocytosis in human monocyte-derived macrophages (MDMs) in the presence of the PS-opsonin protein S (Fig. 4b)[32],[33]. […]", "note": "“And” between values parts separate entries of the source, which are not always exact repeats. Equal values may be shown once."}
{"molecule": "Annexin V: fluorescently-labeled (AF647) annexin V, PS-binding protein (protein, UniProt P08758 2-320, looked up, AF647 label) Annexin A5: AQVLRGTVTDFPGFDERADAETLRKAMKGLGTDEESILTLLTSRSNAQRQEISAAFKTLFGRDLLDDLKSELTGKFEKLIVALMKPSRLYDAYELKHALKGAGTNEKVLTEIIASRTPEELRAIKQVYEEEYGSSLEDDVVGDTSGYYQRMLVVLLQANRDPDAGIDEAQVEQDAQALFQAGELKWGTDEEKFITIFGTRSVSHLRKVFDKYMTISGFQIEETIDRETSGNLEQLLLAVVKSIRSIPAYLAETLYYAMKGAGTDDHTLIRVMVSRSEIDLFNIRKEFRKNFATSLYSMIKGDTSGDYKKALLLLCGEDD", "values": [{"measurement": "Phagocytosis assay (%)", "setting": "40 min, 37 °C, single replicates", "result": "30.0% and 35.0% and 33.0%"}, {"measurement": "Reduction of the phagocytic capacity of MDMs", "setting": "Apo-15 60 or 600 nM", "result": "~ 50%"}]}
